# Measured values from US10900903B2, “Protein structure analysis based on red-edge excitation shift (REES) spectroscopy” (UNIVERSITY OF BATH, priority 2016, dated 2021).
# Tests used:
# [1] = High-pressure REES measurements; assay type: physicochemical; settings: buffered solution, any pressure
# Description: The CSM value is rather larger than reported for the denaturation study above (FIGS. 3A and 3B) and this is due to a different spectral window used to calculate the CSM for the pressure studies. This was necessary due to the optical setup of the pressure cell. […] Fitting the REES data to Eq 4 gives the pressure dependence of A, shown in FIG. 4D as the change in the fraction of A across the pressure range. […] The pressure dependence data can be adequately fit to a simple, phenomenological model that implies a single transition between two states with changing hydrostatic pressure as used previously:
# Where Rp=83.13 cm3 mol^−1 bar K^−1 when the pressure, p, is measured in bar, K0 is the equilibrium constant for the change in the relative population of the ith conformational state represented by the magnitude of A from Eq 4, extrapolated to 0 bar and ΔVA is the apparent difference in the volume associated with this equilibrium transition.
# The difference in sign is simply attributable to relative change in direction of the specific to signal. What is important is that the magnitude of ΔV is much larger for the REES effect compared to W6 emission. Indeed, this magnitude of pressure dependence is more consistent with global metrics of NEMO conformational change previously measured using the pressure dependence of 8-anilino naphthalene sulfonate (ANS) emission. The REES signal may therefore be reflective of the broader equilibrium of NEMO conformational states at sites distal to W6. […] The key finding from the pressure data in the present context is that the REES effect itself is pressure-dependent with the magnitude of A increasing with pressure.
# An ISS high-pressure cell (ISS, Champaign, UL, USA), fitted with a custom fiber optic mounting to the fluorimeter and connected to a circulating water bath for temperature regulation was used to record all high-pressure measurements.
# Where fi is the measured fluorescence intensity and λem is the emission wavelength. The importance of using a consistent wavelength range when reporting CSM data is stressed, as the magnitude will be dependent on the wavelength range chosen.
# [2] = biological target: T1, NEMO (Homo sapiens, UniProt Q9Y6K9); assay: REES of NEMO W6 on ligand binding (peptides, poly-ubiquitin); settings: for R (fit to Eq 1), relative / A (REES magnitude, fit to Eq 2): relative to NEMO alone, binding partners; for A (REES magnitude, fit to Eq 2): peptides 1 mM, poly-ubiquitin 1 μM
# T1 construct: Full length human NEMO was expressed and purified essentially as described previously [23]; made in house
# T1 sequence (Q9Y6K9 whole entry): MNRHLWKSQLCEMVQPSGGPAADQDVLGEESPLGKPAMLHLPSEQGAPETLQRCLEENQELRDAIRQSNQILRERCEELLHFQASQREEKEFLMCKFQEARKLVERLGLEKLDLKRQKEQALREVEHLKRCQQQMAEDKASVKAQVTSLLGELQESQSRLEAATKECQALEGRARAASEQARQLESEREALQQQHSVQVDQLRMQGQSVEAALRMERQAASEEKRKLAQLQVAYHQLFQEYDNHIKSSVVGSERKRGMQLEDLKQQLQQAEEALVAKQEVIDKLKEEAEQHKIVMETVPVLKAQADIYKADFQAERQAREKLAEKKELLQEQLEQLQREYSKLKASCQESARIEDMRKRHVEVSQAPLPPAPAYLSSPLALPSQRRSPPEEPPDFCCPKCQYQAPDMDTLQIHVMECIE
# Description: Having established that the REES effect, specifically the use of Eq 2, can be used as a proxy for the protein free energy landscape, how the NEMO REES signal varies upon ligand binding is considered. […] The REES data for NEMO ligand bound states are shown in FIGS. 6A and 6B with the solid lines representing the fit to Eq 2. The resulting extracted values of A from Eq 2 are given in Table 1 and also as an inset bar chart in FIG. 6. For clarity, the relative change in R and A compared to NEMO alone is reported, extracted from Eq 1 and 2, respectively.
# The IKKβ peptide (termed the NEMO binding domain, NBD) contains two Trp residues and so is not suitable for the present study as the signal from the peptide would confound the analysis of the single NEMO Trp. […] From Table 1 and FIG. 5A there is a significant difference in the magnitude of A depending on the ligand bound form of NEMO. […] If the ligand binding data shown in FIG. 5A is fitted to the simple linear function described by Eq 1 a different trend is found. […] Instead the major difference to is in the curvature of the data and this is captured by the use of Eq 2.
# NEMO comprises a specific domain that non-covalently binds poly-ubiquitin. […] Poly-ubiquitin is found as a range of chain-lengths in the cell and evidence has previously been provided from ANS binding studies that NEMO undergoes different conformational change depending on the chain-length of non-covalently bound poly-ubiquitin [23]. The REES effect on NEMO W6 is explored in the presence of both short (4-mer; Ub4) and long (10-mer; Ub10) poly-ubiquitin chains, as shown in FIG. 6B. From the resulting values of A, given in Table 1, Ub4 binding gives a decrease in A (A=0.77±0.05), but Ub10 gives an increase (A=1.23±0.1). […] The absolute magnitude of the REES difference is small.
# Full length human NEMO was expressed and purified essentially as described previously. Purified protein was dialysed extensively into a buffer comprising 50 mM Tris-Cl pH 8.0, 50 mM NaCl and 5 mM DTT. All measurements were made in this buffer unless otherwise stated. IKK-β and IκBα peptides were commercially synthesised by Genscript, having a purity of >98% and are of the sequence […] and […], respectively. The IKK-β peptide was modified such that the two native Trp residues were replaced with Phe residues. M1-linked poly-ubiquitin was purchased from Viva Bioscience. Staphylococcus aureus immune modulator protein fragment Sbi-III-IV K173A was expressed and purified essentially as described previously. Protein concentration used was between 1 and 5 μM. Peptide concentrations were 1 mM and poly-ubiquitin concentrations were 1 μM.
# All fluorescence measurements were performed using a Perkin Elmer LS50B Luminescence Spectrometer (Perkin Elmer, Waltham, Mass., USA) connected to a circulating water bath for temperature regulation (±1° C.). Samples were incubated for 5 minutes at the given conditions prior to recording measurements. Measurements were performed at 10° C., unless otherwise stated. Excitation and emission slit widths were 5 nm except for pressure experiments where they were 10 nm. The larger slit width was required due to the optical setup of the pressure cell to ensure a […] signal-to-noise for the W6 emission signal. For NEMO red edge excitation scans, tryptophan emission was monitored from 315 to 550 nm. […] For red edge excitation scans, tyrosine emission was monitored from 294 to 400 nm, with the excitation wavelength set at 274 nm. […]
# [3] = REES of NEMO W6 Trp emission: native, denatured, crowded; assay type: physicochemical; settings: for A (REES magnitude, fit to Eq 2) / R (fit to Eq 1), relative: relative to NEMO alone; for A (REES magnitude, fit to Eq 2) / R (fit to Eq 1), relative / R0: native; for A (REES magnitude, fit to Eq 2): denatured (6M guanidine), crowded (Sbi 20 mg/ml); for R (fit to Eq 1), relative / R0: denatured, crowded; for R0: y-intercept of Eq 2 fit
# Experimental: Typically the magnitude of the steady-state REES phenomenon is reported as the simple difference in CSM or ΔλEm^max. From FIG. 1, it is observed that a significant red shift in the emission spectra, with an increase in CSM of 17.7 nm and an increase in ΔλEm^max of 15 nm from λex 292-310 nm. Essentially the data are treated by the linear function: CSM=Rλex+CSM0 Eq 1.
# Where R is the REES magnitude expressed as the change in CSM per nm of the excitation wavelength, λex.
# The REES data in FIG. 2 can be best represented by a Gaussian probability distribution of the form:
# Where A is the area, w is the full width at half-maximal (fwhm), m is the mid-point and R0 is the y-intercept and m=λREES^max, where λREES^max is the excitation wavelength that gives the largest change in the emission peak wavelength. The data in FIG. 2 are fit to Eq 2 and illustrate the low energy excitation at the red edge of the protein absorption spectrum. The fit of Eq 2 to the experimental data is excellent and captures the expected relationship described above.
# In this case, the solvent relaxation will be very rapid and no REES effect observed, effectively because there is one discrete solvation state (fully solvated). NEMO is incubated in 6M guanidine to denature the protein and the corresponding change in the center of spectral mass (CSM) versus λex is shown in FIG. 3. The use of CSM is favoured instead of the magnitude of ΔλEm^max as this metric gives a more robust REES signal and the magnitude of may be highly error prone. However the results using ΔλEm^max are essentially the same. A decrease and red-shift in Trp emission is typically grossly correlated with denaturation of proteins. […] Note that this is not the REES effect but reflective of the solvent exposure of NEMO W6 on denaturation. […] Fitting to Eq 2 also gives a large decrease in the REES effect, A=0.37±0.4. The relative change in the REES effect is similar using either approach and this indicates strongly that a fitting approach using Eq 2 is robust.
# Macromolecular crowding is a key feature of the intracellular milieu arising from the very high concentrations of other species in the cytosol. Crowding reduces the available solvent for other molecules in solution through the excluded volume effect, which effectively increase the concentration of, for example, protein and restricts the accessible conformational states through hard-core repulsions between the crowding agent and the protein. Macromolecular crowding can alter protein conformation, typically inducing folding and stabilization. Crowding therefore potentially provides a means to explore the contrasting physical effect of denaturation on the REES effect, where the protein is more folded/stabilized. A protein has been used as the crowding agent, Sbi (reported above), instead of a synthetic crowding agent since protein is much more consistent with the intracellular environment. […] Incubating NEMO with a high concentration of Sbi (20 mg/ml) gives a dramatic change to the both the absolute Trp emission and also the REES effect as shown in FIG. 3. […] Intriguingly, the REES effect is much larger in the crowded environment giving a relative increase in A of 2.24±0.51. […] This is consistent with the putative molecular model of NEMO activity that is based on allosterically regulated NEMO conformational change. Below, the potential mechanistic role of an increased number of available conformational states with respect to ligand interactions is described.
# Full length human NEMO was expressed and purified essentially as described previously. Purified protein was dialysed extensively into a buffer comprising 50 mM Tris-Cl pH 8.0, 50 mM NaCl and 5 mM DTT. All measurements were made in this buffer unless otherwise stated. IKK-β and IκBα peptides were commercially synthesised by Genscript, having a purity of >98% and are of the sequence […] and […], respectively. […]
# [4] = QUBES of mAb unfolding in urea; assay type: physicochemical
# Experimental: Changes in protein structure are accompanied by a change in the equilibrium of conformational states. It has been previously found with a model system, a ‘hub’ protein (described above), that by quantitating the curvature in REES data it is possible to capture information on unfolded states and ligand induced conformational change. It was explored whether the sensitive detection of differences in REES data could be useful for detecting subtle changes in protein structure in mAbs. It is tested whether the QUBES data can be used to identify unfolding and aggregation of the mAbs since these are key issues facing the development of biopharmaceuticals. […] The formation of soluble aggregates is monitored in the thermally denatured mAbs by dynamic light scattering (DLS), shown in FIG. 19.
# The observed variance in the QUBES values for the denatured mAbs (FIG. 14A) may reflect the differing extent of unfolding or aggregation for each of the samples and the specific nature of the unfolded or aggregated states. […] The data therefore illustrate that these metrics ignore early stage changes to protein structure that are not captured by simple steady-state fluorescence emission measurements.
# All fluorescence measurements were performed using a Perkin Elmer LS50B Luminescence Spectrometer (Perkin Elmer, Waltham, Mass., USA) connected to a circulating water bath for temperature regulation (±1° C.). […]
compound,measurement,setting,value
"N[C@@H](Cc1c[nH]c2ccccc12)C(=O)O [free Trp, tryptophan, reference compound]",REES effect under pressure (in words),[1],No REES effect is observed
"IκBα peptide: peptide mimic of IκBα, sequence DDRHDSGLDSMKD","R (fit to Eq 1), relative",[2],1.35±0.1
same,"A (REES magnitude, fit to Eq 2)",[2],0.85±0.04
"NBD-Phe: IKK-β peptide (NEMO binding domain), two Trp replaced with Phe, sequence TALDFSFLQTE",decrease in W6 emission on binding,[2],~50%
same,"R (fit to Eq 1), relative",[2],0.98±0.1
same,"A (REES magnitude, fit to Eq 2)",[2],1.33±0.3
NEMO + Sbi: NEMO incubated with a high concentration of Sbi (20 mg/ml) as crowding agent,Trp emission intensity compared to NEMO in the absence of Sbi,[3]; Sbi 20 mg/ml,~1.4 times
same,"A (REES magnitude, fit to Eq 2)",[3],2.24±0.51
same,"R (fit to Eq 1), relative",[3],1.07 ± 0.12
same,R0,[3],360.5±0.45 nm
NEMOdenat: NEMO incubated in 6M guanidine to denature the protein,REES effect (in words),[3],dramatically reduced REES effect
same,"R (fit to Eq 1), change in CSM per nm of λex",[3]; absolute value,0.22±0.02
same,"A (REES magnitude, fit to Eq 2)",[3],0.37 ± 0.4
same,"A (REES magnitude, fit to Eq 2)",[3]; listed as Denatured NEMO,0.37±0.4
same,"R (fit to Eq 1), relative",[3],0.21 ± 0.01
same,"R (fit to Eq 1), relative",[3]; listed as Denatured NEMO,0.23±0.1
same,R0,[3],375.0 ± 0.5 nm
same,R0,[3]; listed as Denatured NEMO,375±0.5 nm
same,increase in CSM (red shift),[3]; λex 292-310 nm,4 nm
Tocilizumab: humanised therapeutic mAb,urea concentration at which a significant increase in CSM0 is observed,[4],7 M
same,QUBES value shift on unfolding,[4]; urea,larger R and smaller A value
